Measured values reported in paper PMC9482650, “Quantitative fragmentomics allow affinity mapping of interactomes” (Nature Communications, 2022).

T1: CARD11, Q9BXL7
T1 sequence (Q9BXL7 662-765, limits assumed, looked up): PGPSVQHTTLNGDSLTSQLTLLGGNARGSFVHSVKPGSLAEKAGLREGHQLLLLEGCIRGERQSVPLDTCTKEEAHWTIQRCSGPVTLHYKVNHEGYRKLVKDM

T2: DFNB31_3, Q9P202
T2 sequence (Q9P202 811-907, limits assumed, looked up): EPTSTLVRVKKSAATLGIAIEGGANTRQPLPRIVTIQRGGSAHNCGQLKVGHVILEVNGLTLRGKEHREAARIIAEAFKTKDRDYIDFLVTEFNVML

T3: GRIP1_4, Q9Y3R0
T3 sequence (Q9Y3R0 467-571, limits assumed, looked up): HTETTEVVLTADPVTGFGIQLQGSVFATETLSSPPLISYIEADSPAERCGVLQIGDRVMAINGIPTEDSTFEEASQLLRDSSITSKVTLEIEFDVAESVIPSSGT

T4: GRIP1_7, Q9Y3R0
T4 sequence (Q9Y3R0 999-1096, limits assumed, looked up): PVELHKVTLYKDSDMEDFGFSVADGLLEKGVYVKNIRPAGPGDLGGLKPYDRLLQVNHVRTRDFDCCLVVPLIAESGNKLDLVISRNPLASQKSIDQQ

T5: HTRA3, P83110
T5 sequence (P83110 354-453, limits assumed, looked up): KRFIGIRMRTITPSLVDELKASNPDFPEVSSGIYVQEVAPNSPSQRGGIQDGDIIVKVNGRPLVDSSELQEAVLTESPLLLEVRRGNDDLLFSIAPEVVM

T6: LRRC7, Q96NW7
T6 sequence (Q96NW7 1440-1537, limits assumed, looked up): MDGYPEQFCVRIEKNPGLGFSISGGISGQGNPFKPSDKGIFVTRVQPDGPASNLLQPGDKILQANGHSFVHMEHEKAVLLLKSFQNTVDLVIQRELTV

T7: NHERF3_3, Q5T2W1
T7 sequence (Q5T2W1 238-333, limits assumed, looked up): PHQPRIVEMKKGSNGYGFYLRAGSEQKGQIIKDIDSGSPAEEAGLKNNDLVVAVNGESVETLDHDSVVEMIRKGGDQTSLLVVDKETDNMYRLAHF

T8: RHPN1, Q8TCX5
T8 sequence (Q8TCX5 508-602, limits assumed, looked up): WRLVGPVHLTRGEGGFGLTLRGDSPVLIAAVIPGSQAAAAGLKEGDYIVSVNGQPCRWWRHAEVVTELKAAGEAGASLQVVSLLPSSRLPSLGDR

T9: SNTA1, Q13424
T9 sequence (Q13424 82-180, limits assumed, looked up): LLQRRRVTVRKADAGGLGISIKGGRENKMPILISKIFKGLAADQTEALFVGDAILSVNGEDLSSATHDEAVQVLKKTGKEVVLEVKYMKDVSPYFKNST

T10: SNTB1, Q13884
T10 sequence (Q13884 107-205, limits assumed, looked up): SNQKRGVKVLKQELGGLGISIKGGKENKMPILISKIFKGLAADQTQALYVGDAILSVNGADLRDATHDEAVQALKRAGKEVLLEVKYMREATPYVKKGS

T11: TIAM2, Q8IVF5
T11 sequence (Q8IVF5 885-986, limits assumed, looked up): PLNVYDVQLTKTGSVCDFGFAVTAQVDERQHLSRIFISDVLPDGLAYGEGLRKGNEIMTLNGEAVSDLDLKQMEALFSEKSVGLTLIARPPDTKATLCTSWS


Key:
Test in all cases: holdup assay
Set-up in all cases: key: below the threshold = too weak to quantify, mostly under pKd 3.1 to 4
Conditions in all cases: plain residues with an end cap or a label only (N-terminal biotin on a linker: ado-ado)
[1] = molecular target: T1, CARD11, Q9BXL7
[2] = molecular target: T2, DFNB31_3, Q9P202
[3] = molecular target: DLG1_3, Q12959
DLG1_3, Q12959, sequence (Q12959 457-571): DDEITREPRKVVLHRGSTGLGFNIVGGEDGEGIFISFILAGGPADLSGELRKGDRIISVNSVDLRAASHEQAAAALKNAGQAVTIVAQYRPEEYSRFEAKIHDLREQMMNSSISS

[4] = molecular target: DLG2_3, Q15700
[5] = molecular target: FRMPD2_3, Q68DX3
FRMPD2_3, Q68DX3, sequence (Q68DX3 1073-1166): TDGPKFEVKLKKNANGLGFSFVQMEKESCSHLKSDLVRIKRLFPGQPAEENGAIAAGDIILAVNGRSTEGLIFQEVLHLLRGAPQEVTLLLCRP

[6] = molecular target: GOPC, Q9HD26
[7] = molecular target: GORASP1, Q9BQQ3
GORASP1, Q9BQQ3, sequence (Q9BQQ3 1-208): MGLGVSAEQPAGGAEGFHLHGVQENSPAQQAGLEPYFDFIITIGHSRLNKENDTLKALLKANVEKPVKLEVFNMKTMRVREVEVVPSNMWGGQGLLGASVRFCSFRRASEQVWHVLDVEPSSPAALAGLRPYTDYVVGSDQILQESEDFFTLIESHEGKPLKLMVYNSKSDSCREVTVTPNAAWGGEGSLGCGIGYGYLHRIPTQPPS

[8] = molecular target: GRASP, Q7Z6J2
GRASP, Q7Z6J2, sequence (Q7Z6J2 96-193): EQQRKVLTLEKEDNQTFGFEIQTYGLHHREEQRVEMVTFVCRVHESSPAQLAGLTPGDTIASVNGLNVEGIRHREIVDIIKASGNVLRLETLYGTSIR

[9] = molecular target: T3, GRIP1_4, Q9Y3R0
[10] = molecular target: T4, GRIP1_7, Q9Y3R0
[11] = molecular target: GRIP2_4, Q9C0E4
GRIP2_4, Q9C0E4, sequence (Q9C0E4 446-548): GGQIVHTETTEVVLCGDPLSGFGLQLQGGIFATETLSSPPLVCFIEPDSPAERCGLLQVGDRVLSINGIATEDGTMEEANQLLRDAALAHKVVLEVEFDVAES

[12] = molecular target: GRIP2_6, Q9C0E4
GRIP2_6, Q9C0E4, sequence (Q9C0E4 648-740): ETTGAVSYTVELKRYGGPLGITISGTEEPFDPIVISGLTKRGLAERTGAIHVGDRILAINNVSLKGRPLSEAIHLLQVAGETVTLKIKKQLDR

[13] = molecular target: T5, HTRA3, P83110
[14] = molecular target: IL16_3, Q14005
IL16_3, Q14005, sequence (Q14005 1107-1207): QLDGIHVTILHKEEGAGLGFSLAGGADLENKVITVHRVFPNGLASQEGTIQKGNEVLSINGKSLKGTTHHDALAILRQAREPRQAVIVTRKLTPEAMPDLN

[15] = molecular target: Inadl_10, Q8NI35
Inadl_10, Q8NI35, sequence (Q8NI35 1673-1763): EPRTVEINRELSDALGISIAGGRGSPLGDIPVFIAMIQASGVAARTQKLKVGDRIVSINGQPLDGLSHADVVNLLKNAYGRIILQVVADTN

[16] = molecular target: Inadl_2, Q8NI35
Inadl_2, Q8NI35, sequence (Q8NI35 238-335): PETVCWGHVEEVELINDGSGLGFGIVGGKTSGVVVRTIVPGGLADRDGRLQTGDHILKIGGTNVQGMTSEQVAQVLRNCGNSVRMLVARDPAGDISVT

[17] = molecular target: Inadl_6, Q8NI35
Inadl_6, Q8NI35, sequence (Q8NI35 1058-1167): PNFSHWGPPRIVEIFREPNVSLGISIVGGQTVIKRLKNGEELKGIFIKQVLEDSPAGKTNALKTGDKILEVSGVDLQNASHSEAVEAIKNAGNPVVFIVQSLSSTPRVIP

[18] = molecular target: T6, LRRC7, Q96NW7
[19] = molecular target: MAGI3_2, Q5TCQ9
MAGI3_2, Q5TCQ9, sequence (Q5TCQ9 398-503): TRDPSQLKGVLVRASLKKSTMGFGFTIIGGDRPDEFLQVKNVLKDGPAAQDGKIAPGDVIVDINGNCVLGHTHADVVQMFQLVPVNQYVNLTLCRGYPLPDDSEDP

[20] = molecular target: T7, NHERF3_3, Q5T2W1
[21] = molecular target: T8, RHPN1, Q8TCX5
[22] = molecular target: SCRIB_1, Q14160
SCRIB_1, Q14160, sequence (Q14160 718-814): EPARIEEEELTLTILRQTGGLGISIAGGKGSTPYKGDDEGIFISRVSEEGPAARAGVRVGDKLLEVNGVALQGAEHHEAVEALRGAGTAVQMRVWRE

[23] = molecular target: T9, SNTA1, Q13424
[24] = molecular target: T10, SNTB1, Q13884
[25] = molecular target: SNX27, Q96L92
[26] = molecular target: T11, TIAM2, Q8IVF5

Binder | pKd [1] | pKd [2] | pKd [3] | pKd [4] | pKd [5] | pKd [6] | pKd [7] | pKd [8] | pKd [9] | pKd [10] | pKd [11] | pKd [12] | pKd [13] | pKd [14] | pKd [15] | pKd [16] | pKd [17] | pKd [18] | pKd [19] | pKd [20] | also measured
STKRKLASAV [NCF1, P14598] | below the threshold | 3.85 | below the threshold | 4.09 | below the threshold | below the threshold | below the threshold | 3.65 | below the threshold | below the threshold | below the threshold | below the threshold | below the threshold | below the threshold | below the threshold | below the threshold | below the threshold | below the threshold | 5.35 | below the threshold | pKd [21]: below the threshold; pKd [22]: below the threshold; pKd [23]: below the threshold; pKd [24]: below the threshold; pKd [25]: below the threshold; pKd [26]: 3.75
TNSRHGETTV [FZD2, Q14332] | below the threshold | below the threshold | 4.14 | 4.38 | 3.62 | 3.88 | 3.88 | 3.56 | below the threshold | below the threshold | below the threshold | below the threshold | below the threshold | below the threshold | below the threshold | below the threshold | below the threshold | below the threshold | 5.11 | below the threshold | pKd [21]: 4.16; pKd [22]: 4.25; pKd [23]: 4.64; pKd [24]: 4.75; pKd [25]: 5.64; pKd [26]: below the threshold
SPDRDRESIV [SCN5A, Q14524] | below the threshold | 4.06 | below the threshold | below the threshold | 3.48 | 3.7 | 3.71 | below the threshold | below the threshold | below the threshold | below the threshold | below the threshold | below the threshold | below the threshold | below the threshold | below the threshold | below the threshold | 3.48 | 4.9 | below the threshold | pKd [21]: 4.89; pKd [22]: 3.57; pKd [23]: 6.16; pKd [24]: 5.66; pKd [25]: 5.26; pKd [26]: below the threshold
ARESQKVSHV [FAM110B, Q8TC76] | below the threshold | below the threshold | below the threshold | 3.62 | below the threshold | 3.98 | 3.8 | 3.8 | below the threshold | below the threshold | below the threshold | below the threshold | below the threshold | below the threshold | below the threshold | below the threshold | 4.05 | below the threshold | 5.28 | below the threshold | pKd [21]: 4.72; pKd [22]: 3.74; pKd [23]: 4.25; pKd [24]: 4.52; pKd [25]: 4.42; pKd [26]: below the threshold
ILRKSTTTTV [PRR16, Q569H4] | below the threshold | below the threshold | 3.63 | 4.38 | below the threshold | 3.92 | 4.19 | 4.41 | below the threshold | below the threshold | below the threshold | below the threshold | below the threshold | below the threshold | below the threshold | below the threshold | below the threshold | below the threshold | 5.15 | below the threshold | pKd [21]: 4.01; pKd [22]: 3.76; pKd [23]: 3.92; pKd [24]: 3.85; pKd [25]: 5.15; pKd [26]: below the threshold
LESTTVGTSV [KARS1, Q15046] | below the threshold | below the threshold | 3.78 | 4.23 | below the threshold | below the threshold | below the threshold | 3.95 | below the threshold | below the threshold | below the threshold | below the threshold | below the threshold | below the threshold | below the threshold | below the threshold | below the threshold | below the threshold | 4.09 | below the threshold | pKd [21]: 4.07; pKd [22]: 3.81; pKd [23]: below the threshold; pKd [24]: 3.85; pKd [25]: 4.45; pKd [26]: 4.05
